In series [1] the test system is somatotropin receptor from purified liver membranes. The experiment in a line: Liver radio-receptor assay (RRA), competition with 125I-rpST. The conditions noted are these: competition with 125I-rpST for binding; percent rpST binding.
In series [2] the test system is hypophysectomized (hypox) rat. The experiment in a line: Hypox rat test for growth enhancement. Format: in vivo. The conditions noted are these: growth over a period such as 10 days; relative to rpST positive control. As to the method:
The efficacy of the recombinant animal somatotropin derivatives of the present invention for altering the growth rate of animals is determined utilizing the hypophysectomized (hypox) rat assay. […] The response measured is growth over a period of time such as 10 days and is presented in Table IV as percent of the biological activity of the rpST positive control, which is included in every trial.

The nature of series [3]: Solution stability profile of rpST mutant proteins (solubility in vitro at 43° C.). Format: physicochemical. The conditions noted are these: pH 7.4. As to the method: The procedure described to determine stability profiles is as follows. […] This is filtered through a millipore sterile Millex-0.22 μm filter unit and 0.1 ml aliquots placed into tubes. These are placed in a 43° C. oven and removed at the required intervals. The contents are then diluted with phosphate buffered saline. The supernatant is assayed for monomer and dimer content by HPLC. A mass balance is done. Any precipitated material is recorded. Results are compared with the initial concentrations and a stability profile documented.

We go through two molecules from patent publication US5310882A, “Somatotropins with alterations in the α-helix 3 region” (priority 1990, dated 1994).

Where a chain is given by its changes, count along the chain named. In names and notes the source's numbering stands.

B1: L115A + A34: rpST with leucine 115 changed to alanine, A34 background (protein, UniProt P01248 27-216, looked up, variant L115A)
Somatotropin: FPAMPLSSLFANAVLRAQHLHQLAADTYKEFERAYIPEGQRYSIQNAQAAFCFSETIPAPTGKDEAQQRSDVELLRFSLLLIQSWLGPVQFLSRVFTNSLVFGTSDRVYEKLKDAEEGIQALMRELEDGSPRAGQILKQTYDKFDTNLRSDDALLKNYGLLSCFKKDLHKAETYLRVMKCRRFVESSCAF
modifications: A34 background
notes: rpST with leucine 115 changed to alanine, A34 background
Take B1: the RRA in series [1] is on record as 163% of the activity observ. In addition, in series [2], the Hypox rat is given as 88.6% of the activity of the. Besides, the “% Soluble” value in series [3] is given as 0%.

B2: L118A + A34: rpST with leucine 118 changed to alanine, A34 background (protein, UniProt P01248 27-216, looked up, variant L118A)
Somatotropin: B1 Somatotropin with L92A, A115L
modifications: A34 background
notes: rpST with leucine 118 changed to alanine, A34 background
For the molecule B2, the RRA in series [1] was 49.5% of the activity observ. Further, in series [2], the Hypox rat is on record as 64% of the activity of the. In addition, the “% Soluble” value in series [3] is given as 10%.
